Results on 2 molecules are retold here after PMC9464236, “Biochemical characterization of a disease-causing human osteoprotegerin variant” (Scientific Reports, 2022).

Several values for one entry are separate records, joined by “and”; a condition that tells them apart may be missing. Equal values may be shown once.

The Kd is a measure of binding affinity in units of concentration. In general, stoichiometry N refers to the number of molecules, sites or subunits per partner or assembly.

Series [1] deals with T1, recombinant soluble RANKL (sRANKL) (UniProt O35235 139-316).
T1 chain: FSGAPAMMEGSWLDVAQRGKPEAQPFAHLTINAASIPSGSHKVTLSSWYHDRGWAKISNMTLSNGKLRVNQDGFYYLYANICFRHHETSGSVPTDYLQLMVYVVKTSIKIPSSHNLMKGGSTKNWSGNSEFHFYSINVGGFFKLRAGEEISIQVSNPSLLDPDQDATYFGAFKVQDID
As to the kind of experiment: ELISA. In general terms: ELISA stands for enzyme-linked immunosorbent assay.

Series [2] concerns the molecule itself. Kind of series: SEC; Superdex 200, 25 mM HEPES pH 7.1, 150 mM NaCl; peak fractions from the heparin Sepharose column; ferritin (440 kDa) and IgG (150 kDa) as markers. Background: Size exclusion chromatography separates by hydrodynamic size, large species first.

B1: human osteoprotegerin Stop402Leu mutant with a 19-residue C-terminal appendage (OPG^+19) (receptor)
chain: ETFPPKYLHYDEETSHQLLCDKCPPGTYLKQHCTAKWKTVCAPCPDHYYTDSWHTSDECLYCSPVCKELQYVKQECNRTHNRVCECKEGRYLEIEFCLKHRSCPPGFGVVQAGTPERNTVCKRCPDGFFSNETSSKAPCRKHTNCSVFGLLLTQKGNATHDNICSGNSESTQKCGIDVTLCEEAFFRFAVPTKFTPNWLSVLVDNLPGTKVNAESVERIKRQHSSQEQTFQLLKLWKHQNKDQDIVKKIIQDIDLCENSVQRHIGHANLTFEQLRSLMESLPGKKVGAEDIEKTIKACKPSDQILKLLSLWRIKNGDQDTLKGLMHALKHSKTYHFPKTVTQSLKKTIRFLHSFTMYKLYQKLFLEMIGNQVQSVKISCLLLEMAIELFPHNWRDPMDE
notes: Osteoprotegerin (OPG, TNFRSF11B), human; complete open reading frame, residues up to 401, followed by the read-through appendage; 19-residue appendage 402-420 made by read-through of the mutated stop codon (Stop402Leu); Secreted; Mixture of higher-order oligomers; also called mutant hOPG; mutant OPG; source: 293-freestyle cells, transiently transfected; purified from medium (heparin Sepharose, …)
On to B1, for which the Kd in series [1] worked out at 4.65 nM. Besides, in series [2], the “stoichiometry N” value was 12 and 6 and 4.

B2: wildtype human osteoprotegerin (WT OPG) (receptor, UniProt O00300 22-401, looked up)
chain: ETFPPKYLHYDEETSHQLLCDKCPPGTYLKQHCTAKWKTVCAPCPDHYYTDSWHTSDECLYCSPVCKELQYVKQECNRTHNRVCECKEGRYLEIEFCLKHRSCPPGFGVVQAGTPERNTVCKRCPDGFFSNETSSKAPCRKHTNCSVFGLLLTQKGNATHDNICSGNSESTQKCGIDVTLCEEAFFRFAVPTKFTPNWLSVLVDNLPGTKVNAESVERIKRQHSSQEQTFQLLKLWKHQNKDQDIVKKIIQDIDLCENSVQRHIGHANLTFEQLRSLMESLPGKKVGAEDIEKTIKACKPSDQILKLLSLWRIKNGDQDTLKGLMHALKHSKTYHFPKTVTQSLKKTIRFLHSFTMYKLYQKLFLEMIGNQVQSVKISCL
notes: Osteoprotegerin (OPG, TNFRSF11B), human; complete open reading frame of full-length human OPG in pcDNA3.4-TOPO; stop codon at position 402; Disulfide-linked dimer; assays used the SEC-purified dimer; also called WT hOPG; hOPG; source: 293-freestyle cells, transiently transfected; purified from medium (heparin Sepharose, Superdex 200)
For B2, in series [1], the dissociation constant Kd was 4.8 nM. Also, in series [2], the “stoichiometry N” value was 2.
